Several values for one entry are separate records, joined by “and”; a condition that tells them apart may be missing. Equal entries are not always repeated. Where two headings read alike, the source gives them in different places. Residues, ends and D or L forms follow the SMILES beside them. No end group written: not given here.

The target in data set [1] is T1, ACE (Homo sapiens, UniProt P12821).
T1 construct: purchased Sigma-Aldrich
As to the kind of experiment: ACE-inhibitory activity assay in vitro (HHL substrate, hippuric acid by HPLC). The format is biochemical. The note with it: for inhibition at 2000 µg/mL: 1 h; for IC50: five concentrations in triplicate. The protocol: The method used to determine ACE-inhibitory activity was designed according to that of Sangsawad et al. with minor modifications. […] The reaction mixture comprised 50 μL of peptide and 50 μL of ACE (25 mU/mL), undergoing pre-incubation for 5 min at 37 °C. Subsequently, 150 μL of substrate (8.3 mM HHL in 0.1 M Tris-HCl buffer with 500 mM NaCl at pH 8.3) was introduced, and the sample was further incubated at 37 °C for 60 min. Following the completion of the reaction, it was terminated via the addition of 1 M HCl. […] IC50 was used to express the activity of hydrolysate; all analyses were carried out under five different concentrations in triplicate.

Data set [2] deals with T1, ACE. Set-up: method as in our group and the DFBP database. To be noted: ACE-inhibitory activity used as 3D-QSAR input (training set 34, test set 12 marked *); ref our group and the DFBP database; cited from earlier work.
The nature of data set [3]: Stability of peptides after simulated gastrointestinal digestion in vitro. The format is in vitro ADME. The note with it: pepsin (1000 U/mL) and pancreatin (50 U/mL); peptide 0.5 mg/mL; LC-MS (Q Exactive, ESI positive); peak area after/before digestion × 100. On the procedure:
The stability in vitro digestion followed the method we reported previously with minor modifications. Pepsin (1000 U/mL) and pancreatin (50 U/mL) were used to digest the peptide (0.5 mg/mL). A Q Exactive system (Thermo Fisher Scientific, USA) equipped with ESI in positive ion mode was used for mass spectrometric detection. Stability %=Peak area after digestion sample/Peak area before digestion sample×100%

[4] abbreviates: peptide 2 mg/mL, HHL substrate, pH 8.3, 37 °C, 60 min, HPLC of hippuric acid, read-out: ACE Inhibition Rate (%) (2 mg/mL).
Setting [5] is: HHL substrate, pH 8.3, 37 °C, 60 min, HPLC of hippuric acid.

T1 sequence (P12821 30-1306, species assumed): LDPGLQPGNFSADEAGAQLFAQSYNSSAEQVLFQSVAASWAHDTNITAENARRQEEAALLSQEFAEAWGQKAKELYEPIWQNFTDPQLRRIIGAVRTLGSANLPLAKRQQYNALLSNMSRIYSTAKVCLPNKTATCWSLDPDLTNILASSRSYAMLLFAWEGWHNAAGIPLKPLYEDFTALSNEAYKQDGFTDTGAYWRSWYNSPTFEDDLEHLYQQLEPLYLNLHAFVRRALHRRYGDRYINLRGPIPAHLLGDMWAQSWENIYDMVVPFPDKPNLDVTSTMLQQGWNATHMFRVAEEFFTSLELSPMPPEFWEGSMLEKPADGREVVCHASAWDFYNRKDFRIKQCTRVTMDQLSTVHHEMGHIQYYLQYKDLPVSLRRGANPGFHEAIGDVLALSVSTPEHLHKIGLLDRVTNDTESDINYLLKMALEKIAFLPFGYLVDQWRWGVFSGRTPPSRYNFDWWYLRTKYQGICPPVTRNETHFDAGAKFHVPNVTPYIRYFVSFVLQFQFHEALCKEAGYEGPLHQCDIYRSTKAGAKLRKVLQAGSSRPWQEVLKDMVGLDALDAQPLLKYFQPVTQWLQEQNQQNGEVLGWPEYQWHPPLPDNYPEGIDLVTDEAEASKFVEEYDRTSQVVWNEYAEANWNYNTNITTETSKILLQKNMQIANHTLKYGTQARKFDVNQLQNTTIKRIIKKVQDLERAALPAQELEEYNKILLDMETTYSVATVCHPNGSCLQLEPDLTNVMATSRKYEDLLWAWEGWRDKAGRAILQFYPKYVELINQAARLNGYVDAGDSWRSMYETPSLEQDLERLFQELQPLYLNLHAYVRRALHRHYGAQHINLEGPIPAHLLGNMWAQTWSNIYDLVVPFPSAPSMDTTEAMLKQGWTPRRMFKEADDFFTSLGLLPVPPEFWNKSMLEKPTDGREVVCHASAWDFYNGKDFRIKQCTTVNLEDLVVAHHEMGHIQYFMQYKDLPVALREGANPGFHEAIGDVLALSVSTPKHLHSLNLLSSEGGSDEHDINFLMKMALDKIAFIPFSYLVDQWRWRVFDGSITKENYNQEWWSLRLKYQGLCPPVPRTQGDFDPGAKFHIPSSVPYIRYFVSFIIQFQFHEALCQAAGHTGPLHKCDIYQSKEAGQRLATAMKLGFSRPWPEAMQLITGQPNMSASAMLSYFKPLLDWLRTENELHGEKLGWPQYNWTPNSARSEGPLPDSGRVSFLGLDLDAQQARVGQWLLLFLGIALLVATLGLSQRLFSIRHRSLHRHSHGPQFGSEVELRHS

As for `N=C(N)NCCC[C@H](NC(=O)[C@H](CCC(=O)O)NC(=O)[C@@H]1CCCN1)C(=O)N[C@@H](CCCCN)C(=O)O` [PERK] (H-PERK-OH), the inhibition at 2000 µg/mL on ACE [1] (setting [4]) amounted to 4.5%. The same measure, in the same setting: the figure for `N=C(N)NCCC[C@H](NC(=O)[C@@H]1CCCN1C(=O)[C@H](Cc1ccccc1)NC(=O)[C@@H](N)CCCNC(=N)N)C(=O)O` [RFPR] (H-RFPR-OH) is 22.9%. Take `CC(C)C[C@H](NC(=O)[C@H](Cc1c[nH]cn1)NC(=O)[C@H](CC(C)C)NC(=O)[C@@H](N)Cc1ccc(O)cc1)C(=O)O` [YLHL] (H-YLHL-OH): at ACE [1] (pH 8.3, read-out: ACE Inhibition Rate (%) (2 mg/mL)), the inhibition at 2000 µg/mL worked out at 65.4%. For “ADGLWL [ACEI peptide, 3D-QSAR training set]”, the PIC50 with ACE [2] is recorded as -2.45. On to AHSVRF [ACEI peptide, 3D-QSAR test set], for which the PIC50 with ACE [2] is recorded as -1.26. Take “AHSVRFY [ACEI peptide, 3D-QSAR test set]”: in the data set with ACE [2], the PIC50 is -1.21. On to “Ala-His-Ser-Val (AHSV) [ACEI peptide, 3D-QSAR training set]”, for which, in the data set with ACE [2], the PIC50 is reported as -3.26. Take “Asp-Phe-Gly [ACEI peptide, 3D-QSAR training set]”: the PIC50 at ACE [2] was -1.65. Turning to “CCNKSV (cysteine pairing not given here) [ACEI peptide, 3D-QSAR test set]”, in the data set with ACE [2], the PIC50 is reported as -1.18. Regarding “Cys-Cys-Asn-Lys (CCNK) [ACEI peptide, 3D-QSAR training set]”, the PIC50 with ACE [2] is reported as -0.95.

Take “FCLYELAR [ACEI peptide, 3D-QSAR training set]”: the PIC50 with ACE [2] was -1.50.

Consider “FPEVFGK [ACEI peptide, 3D-QSAR training set]”, for which the PIC50 in the data set with ACE [2] is -2.15. In the case of “FQKVVAK [ACEI peptide, 3D-QSAR test set]”, the PIC50 with ACE [2] is given as -0.32. Turning to “GIPLPLI [ACEI peptide, 3D-QSAR training set]”, in the data set with ACE [2], the PIC50 is recorded as -1.87. In the case of “GKDAVIV [ACEI peptide, 3D-QSAR training set]”, the PIC50 in the data set with ACE [2] was -1.26. For “GRVSNCAA [ACEI peptide, 3D-QSAR training set]”, the PIC50 with ACE [2] is on record as -1.76. As to “GYALPHA [ACEI peptide, 3D-QSAR training set]”, the PIC50 in the data set with ACE [2] was -1.44. On to “Gln-Val-Gly-Pro (QVGP) [ACEI peptide, 3D-QSAR training set]”, for which the PIC50 with ACE [2] is given as -2.21. As for “His-Cys-His-Thr (HCHT) [ACEI peptide, 3D-QSAR training set]”, the PIC50 in the data set with ACE [2] is given as -2.06. As for “His-Cys-His-Thr-Asn (HCHTN) [ACEI peptide, 3D-QSAR test set]”, the PIC50 with ACE [2] is -1.48. Take “IGPGLGR [ACEI peptide, 3D-QSAR training set]”: in the data set with ACE [2], the PIC50 was -2.32.

Regarding “IIAPPER [ACEI peptide, 3D-QSAR training set]”, in the data set with ACE [2], the PIC50 is reported as -0.94.

What is called IC50 is the concentration needed to halve the response being measured. In the case of KALVAP [KALVAP], the inhibition at 2000 µg/mL at ACE [1] (setting [4]) was 100%. The compound also gave a 50% inhibitory concentration (IC50) on ACE [1] (setting [5]) of 17.1 µM. The “Simulated Gastrointestinal Digestion Stability %” value in data set [3] is reported as 78%. For the compound KVKPL [KVKPL], at ACE [1] (setting [4]), the inhibition at 2000 µg/mL was -14.2%. Turning to “KVREGTTY [ACEI peptide, 3D-QSAR training set]”, in the data set with ACE [2], the PIC50 is listed as -2.01. In the case of LEKLVT [LEKLVT], at ACE [1] (setting [4]), the inhibition at 2000 µg/mL is 30.5%.

Take LEKPLL [LEKPLL]: the inhibition at 2000 µg/mL on ACE [1] (setting [4]) is 24.2%.

As to “LGPLGHQ [ACEI peptide, 3D-QSAR training set]”, in the data set with ACE [2], the PIC50 is reported as -0.63. Consider “LHPGDAQR [ACEI peptide, 3D-QSAR training set]”, for which the PIC50 in the data set with ACE [2] is -1.01. As for “LPGVLPVA [ACEI peptide, 3D-QSAR test set]”, the PIC50 with ACE [2] is reported as 0.11. For “LPQNILP [ACEI peptide, 3D-QSAR test set]”, the PIC50 with ACE [2] is on record as -1.66. Turning to “LVLPGE [ACEI hexapeptide of the authors' previous studies; alignment template, training set]”, in the data set with ACE [2], the PIC50 is reported as -1.13. Turning to “LVLPGELAK [ACEI peptide, 3D-QSAR training set]”, the PIC50 with ACE [2] is -2.26.

On to “Leu-Ala-Lys [ACEI peptide, 3D-QSAR test set]”, for which, on ACE [2], the PIC50 is -1.68. For the compound “Leu-Gln-Lys-Trp (LQKW) [ACEI peptide, 3D-QSAR test set]”, in the data set with ACE [2], the PIC50 was -1.54. In the case of “Leu-Phe-Arg-Gln (LFRQ) [ACEI peptide, 3D-QSAR test set]”, in the data set with ACE [2], the PIC50 was -1.23. Take “Leu-Val-Leu [ACEI peptide, 3D-QSAR training set]”: the PIC50 at ACE [2] is -1.09.

Turning to “Lys-Ser-Val [ACEI peptide, 3D-QSAR training set]”, at ACE [2], the PIC50 is listed as -3.01. Regarding “NMAINPSK [ACEI peptide, 3D-QSAR training set]”, in the data set with ACE [2], the PIC50 is -1.78. Regarding “PANIKWGD [ACEI peptide, 3D-QSAR training set]”, the PIC50 with ACE [2] is recorded as -1.32. With PRPKPPP [PRPKPPP], the inhibition at 2000 µg/mL at ACE [1] (setting [4]) was 74.8%. As for “PTHIKWGD [ACEI peptide, 3D-QSAR training set]”, in the data set with ACE [2], the PIC50 is given as -0.18. For the compound “Phe-Pro-Gln-Tyr (FPQY) [ACEI peptide, 3D-QSAR training set]”, the PIC50 with ACE [2] is given as -2.48. As for “Pro-Ser-Phe-Gln-Pro (PSFQP) [ACEI peptide, 3D-QSAR training set]”, the PIC50 with ACE [2] is given as -1.86. For RLPHV [RLPHV], at ACE [1] (setting [4]), the inhibition at 2000 µg/mL is 100%. For the same compound, the IC50 on ACE [1] (setting [5]) is 3.81 µM and 6.01 µM. For the same compound, the “Simulated Gastrointestinal Digestion Stability %” value in data set [3] is 82%.

Regarding “Ser-Leu-Pro-Gln-Asn (SLPQN) [ACEI peptide, 3D-QSAR training set]”, the PIC50 with ACE [2] is -0.98. For “TFQGPPHGIQVER [ACEI peptide, 3D-QSAR training set]”, the PIC50 in the data set with ACE [2] is -0.53. On to TVKPGL [TVKPGL], for which the inhibition at 2000 µg/mL at ACE [1] (setting [4]) stood at 100%. Also, at ACE [1] (setting [5]), the IC50 was 6.01 µM and 3.81 µM. Moreover, in data set [3], the “Simulated Gastrointestinal Digestion Stability %” value was 90%. As to TYLPVH [ACEI peptide, 3D-QSAR test set], in the data set with ACE [2], the PIC50 is -0.14. “Tyr-Pro-Gly [ACEI peptide, 3D-QSAR training set]”: on ACE [2], the PIC50 is on record as -1.37. “Tyr-Thr-Val-Phe (YTVF) [ACEI peptide, 3D-QSAR training set]”: the PIC50 in the data set with ACE [2] is listed as -1.94. “Val-His-Leu-Pro-Pro (VHLPP) [ACEI peptide, 3D-QSAR test set]”: the PIC50 with ACE [2] is -1.26. Take “Val-Leu-Pro-Tyr-Pro (VLPYP) [ACEI peptide, 3D-QSAR training set]”: in the data set with ACE [2], the PIC50 is -1.56. As for “YETGNGIK [ACEI peptide, 3D-QSAR training set]”, in the data set with ACE [2], the PIC50 is on record as -0.57.

These data come from publication PMC10648141, “Screening of Oral Potential Angiotensin-Converting Enzyme Inhibitory Peptides from Zizyphus jujuba Proteins Based on Gastrointestinal Digestion In Vivo” (International Journal of Molecular Sciences, 2023).
